Measured values taken from patent publication US20240148892A1 (DUALITY BIOLOGICS SUZHOU, published 2024).

What was measured:
Test in all cases: ELISA, B7 family protein immobilized on plate, serially diluted antibody
Human B7-H6 = biological target: T1, Human B7-H6 (human, UniProt Q68D85 25-262)
T1 construct: Bought protein; also called human B7-H6 protein; ACRO B76-H52H8
T1 sequence (looked up): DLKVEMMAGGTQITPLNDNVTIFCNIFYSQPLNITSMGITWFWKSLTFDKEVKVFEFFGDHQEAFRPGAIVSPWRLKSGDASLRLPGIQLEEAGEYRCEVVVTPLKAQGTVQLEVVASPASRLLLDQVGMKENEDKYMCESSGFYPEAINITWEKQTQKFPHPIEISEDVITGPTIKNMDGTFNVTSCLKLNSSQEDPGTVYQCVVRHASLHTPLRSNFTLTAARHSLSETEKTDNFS
Protocol: (§1) Human PD-Ll protein (see the table above), human B7-H2 protein, human B7-H3 protein, human B7-H4 protein, human B7-H5 protein, human B7-H6 protein, human B7-1 protein, human B7-2 protein, human PD-L2 protein, human B7-H7 protein, and human BTNL2 protein were separately immobilized on 96-well plates by incubation at 4° C. overnight. The 96-well plates were then blocked by incubation with 1% BSA in PBS at 37° C. for 1 h. After blocking, the 96-well plates were washed 3 times with PBST (PBS containing 0.05% Tween 20). […] After incubation, the 96-well plates were washed 3 times with PBST, incubated with a secondary antibody (see the table above) in binding buffer at 37° C. for 1 h, and then washed again. TMB was added for color development, and the reaction was stopped by 1 M H₂SO₄.

Human B7-H2, His Tag = biological target: T2, Human B7-H2, His Tag (human, UniProt O75144 19-258)
T2 construct: Bought protein; also called human B7-H2 protein; ACRO B72-H5221; not shown: His tag
T2 sequence (looked up): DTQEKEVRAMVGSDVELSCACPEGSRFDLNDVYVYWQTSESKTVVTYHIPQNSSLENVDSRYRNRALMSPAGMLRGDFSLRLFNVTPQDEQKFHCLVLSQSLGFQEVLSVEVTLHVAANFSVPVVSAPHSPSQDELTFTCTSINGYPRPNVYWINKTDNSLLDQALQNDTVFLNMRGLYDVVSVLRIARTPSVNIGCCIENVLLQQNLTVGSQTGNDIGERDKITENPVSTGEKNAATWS
Protocol: as §1

Human PD-L1, His Tag = biological target: T3, Human PD-L1, His Tag (human, UniProt Q9NZQ7 19-238)
T3 construct: Bought protein; also called human PD-L1 protein; ACRO PD1-H5229; not shown: His tag
Protocol: as §1

[1] = biological target: T4, Human B7-1 protein, His Tag (human, UniProt P33681 35-242)
T4 construct: Bought protein; also called ACRO B71-H5228; not shown: His tag
T4 sequence (looked up): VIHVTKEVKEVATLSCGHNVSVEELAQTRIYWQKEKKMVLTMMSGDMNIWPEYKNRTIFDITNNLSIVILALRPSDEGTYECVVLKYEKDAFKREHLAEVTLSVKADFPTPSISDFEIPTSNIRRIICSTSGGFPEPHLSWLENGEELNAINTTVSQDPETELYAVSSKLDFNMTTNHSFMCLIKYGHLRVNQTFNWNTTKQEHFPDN
Protocol: as §1

Human B7-H5, His Tag = biological target: T5, Human B7-H5, His Tag (human, UniProt Q9H7M9 33-194)
T5 construct: Bought protein; also called human B7-H5 protein; ACRO B75-H52H0; not shown: His tag
T5 sequence (looked up): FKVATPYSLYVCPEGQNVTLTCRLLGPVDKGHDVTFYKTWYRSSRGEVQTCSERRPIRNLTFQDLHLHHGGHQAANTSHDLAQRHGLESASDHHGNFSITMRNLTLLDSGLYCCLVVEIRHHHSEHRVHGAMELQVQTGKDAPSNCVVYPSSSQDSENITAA
Protocol: as §1

Human B7-H7, His Tag = biological target: T6, Human B7-H7, His Tag (human, UniProt Q9UM44 23-344)
T6 construct: Bought protein; also called human B7-H7 protein; ACRO B77-H52H5; not shown: His tag
T6 sequence (looked up): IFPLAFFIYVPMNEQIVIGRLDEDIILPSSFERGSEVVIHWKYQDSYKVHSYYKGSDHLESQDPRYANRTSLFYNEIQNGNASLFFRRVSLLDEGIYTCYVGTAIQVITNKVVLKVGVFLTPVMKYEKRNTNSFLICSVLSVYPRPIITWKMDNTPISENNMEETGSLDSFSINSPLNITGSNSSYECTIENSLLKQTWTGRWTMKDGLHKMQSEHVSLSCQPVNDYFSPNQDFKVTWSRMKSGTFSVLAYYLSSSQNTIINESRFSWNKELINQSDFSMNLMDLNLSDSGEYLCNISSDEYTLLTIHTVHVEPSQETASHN
Protocol: as §1

[2] = biological target: T7, Human B7-2 protein, His Tag (human, UniProt P42081 24-247)
T7 construct: Bought protein; also called ACRO CD6-H5223; not shown: His tag
T7 sequence (looked up): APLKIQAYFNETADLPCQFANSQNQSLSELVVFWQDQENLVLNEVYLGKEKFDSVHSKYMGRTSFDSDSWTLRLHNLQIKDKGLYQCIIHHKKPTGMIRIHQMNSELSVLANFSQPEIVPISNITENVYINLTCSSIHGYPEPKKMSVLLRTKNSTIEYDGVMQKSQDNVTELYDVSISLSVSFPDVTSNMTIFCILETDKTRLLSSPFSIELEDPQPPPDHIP
Protocol: as §1

Measured: binding result

T3 sequence (Q9NZQ7 19-238 limits assumed): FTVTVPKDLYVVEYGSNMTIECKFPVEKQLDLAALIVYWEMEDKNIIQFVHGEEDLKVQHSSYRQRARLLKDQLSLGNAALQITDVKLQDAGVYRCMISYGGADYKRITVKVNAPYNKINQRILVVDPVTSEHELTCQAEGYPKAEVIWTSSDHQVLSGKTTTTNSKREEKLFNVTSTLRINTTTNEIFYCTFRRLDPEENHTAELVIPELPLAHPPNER

B1: W301088-1.145.16-z3-p1-uIgG1KV320 (antibody, V domains shown)
VH: QVQLQESGPGLVKPSQTLSLTCTVTDYSITGDYAWNWIRQHPGKGLEWIGYISYSGSTSYNPSLQSRVTISRDTSKNQFSLKLSSVTAADTAVYFCARSLGRRWYFVVWGQGTTVTVSS
VL: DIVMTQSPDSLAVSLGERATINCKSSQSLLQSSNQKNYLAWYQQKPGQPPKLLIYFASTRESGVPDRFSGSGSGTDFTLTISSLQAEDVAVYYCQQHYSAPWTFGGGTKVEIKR
notes: Humanized, PTM-removed (VL N027dQ) human IgG1 LALA kappa antibody; also called WBP301088; W301088-z3-p1
no binding: all assays above
